Columns and labels:
full length TcdB = full length TcdB (C. difficile, UniProt P18177 1-2366); assay: SPR; settings: both partners purified
TcdB2 (TcdB 027) = TcdB2 (TcdB 027) (C. difficile); assay: cell-based or functional assay
[1] = molecular target: TcdB 1285-1804 with C-terminal Avitag (RBD toxin fragment) (C. difficile, UniProt P18177 1285-1804); assay: SPR; settings: both partners purified
biotinylated RBD of TcsL [2] = molecular target: T1, biotinylated RBD of TcsL (Paeniclostridium sordellii, UniProt Q46342 1-2364); assay: SPR; settings: both partners purified
T1 sequence (Q46342 whole entry): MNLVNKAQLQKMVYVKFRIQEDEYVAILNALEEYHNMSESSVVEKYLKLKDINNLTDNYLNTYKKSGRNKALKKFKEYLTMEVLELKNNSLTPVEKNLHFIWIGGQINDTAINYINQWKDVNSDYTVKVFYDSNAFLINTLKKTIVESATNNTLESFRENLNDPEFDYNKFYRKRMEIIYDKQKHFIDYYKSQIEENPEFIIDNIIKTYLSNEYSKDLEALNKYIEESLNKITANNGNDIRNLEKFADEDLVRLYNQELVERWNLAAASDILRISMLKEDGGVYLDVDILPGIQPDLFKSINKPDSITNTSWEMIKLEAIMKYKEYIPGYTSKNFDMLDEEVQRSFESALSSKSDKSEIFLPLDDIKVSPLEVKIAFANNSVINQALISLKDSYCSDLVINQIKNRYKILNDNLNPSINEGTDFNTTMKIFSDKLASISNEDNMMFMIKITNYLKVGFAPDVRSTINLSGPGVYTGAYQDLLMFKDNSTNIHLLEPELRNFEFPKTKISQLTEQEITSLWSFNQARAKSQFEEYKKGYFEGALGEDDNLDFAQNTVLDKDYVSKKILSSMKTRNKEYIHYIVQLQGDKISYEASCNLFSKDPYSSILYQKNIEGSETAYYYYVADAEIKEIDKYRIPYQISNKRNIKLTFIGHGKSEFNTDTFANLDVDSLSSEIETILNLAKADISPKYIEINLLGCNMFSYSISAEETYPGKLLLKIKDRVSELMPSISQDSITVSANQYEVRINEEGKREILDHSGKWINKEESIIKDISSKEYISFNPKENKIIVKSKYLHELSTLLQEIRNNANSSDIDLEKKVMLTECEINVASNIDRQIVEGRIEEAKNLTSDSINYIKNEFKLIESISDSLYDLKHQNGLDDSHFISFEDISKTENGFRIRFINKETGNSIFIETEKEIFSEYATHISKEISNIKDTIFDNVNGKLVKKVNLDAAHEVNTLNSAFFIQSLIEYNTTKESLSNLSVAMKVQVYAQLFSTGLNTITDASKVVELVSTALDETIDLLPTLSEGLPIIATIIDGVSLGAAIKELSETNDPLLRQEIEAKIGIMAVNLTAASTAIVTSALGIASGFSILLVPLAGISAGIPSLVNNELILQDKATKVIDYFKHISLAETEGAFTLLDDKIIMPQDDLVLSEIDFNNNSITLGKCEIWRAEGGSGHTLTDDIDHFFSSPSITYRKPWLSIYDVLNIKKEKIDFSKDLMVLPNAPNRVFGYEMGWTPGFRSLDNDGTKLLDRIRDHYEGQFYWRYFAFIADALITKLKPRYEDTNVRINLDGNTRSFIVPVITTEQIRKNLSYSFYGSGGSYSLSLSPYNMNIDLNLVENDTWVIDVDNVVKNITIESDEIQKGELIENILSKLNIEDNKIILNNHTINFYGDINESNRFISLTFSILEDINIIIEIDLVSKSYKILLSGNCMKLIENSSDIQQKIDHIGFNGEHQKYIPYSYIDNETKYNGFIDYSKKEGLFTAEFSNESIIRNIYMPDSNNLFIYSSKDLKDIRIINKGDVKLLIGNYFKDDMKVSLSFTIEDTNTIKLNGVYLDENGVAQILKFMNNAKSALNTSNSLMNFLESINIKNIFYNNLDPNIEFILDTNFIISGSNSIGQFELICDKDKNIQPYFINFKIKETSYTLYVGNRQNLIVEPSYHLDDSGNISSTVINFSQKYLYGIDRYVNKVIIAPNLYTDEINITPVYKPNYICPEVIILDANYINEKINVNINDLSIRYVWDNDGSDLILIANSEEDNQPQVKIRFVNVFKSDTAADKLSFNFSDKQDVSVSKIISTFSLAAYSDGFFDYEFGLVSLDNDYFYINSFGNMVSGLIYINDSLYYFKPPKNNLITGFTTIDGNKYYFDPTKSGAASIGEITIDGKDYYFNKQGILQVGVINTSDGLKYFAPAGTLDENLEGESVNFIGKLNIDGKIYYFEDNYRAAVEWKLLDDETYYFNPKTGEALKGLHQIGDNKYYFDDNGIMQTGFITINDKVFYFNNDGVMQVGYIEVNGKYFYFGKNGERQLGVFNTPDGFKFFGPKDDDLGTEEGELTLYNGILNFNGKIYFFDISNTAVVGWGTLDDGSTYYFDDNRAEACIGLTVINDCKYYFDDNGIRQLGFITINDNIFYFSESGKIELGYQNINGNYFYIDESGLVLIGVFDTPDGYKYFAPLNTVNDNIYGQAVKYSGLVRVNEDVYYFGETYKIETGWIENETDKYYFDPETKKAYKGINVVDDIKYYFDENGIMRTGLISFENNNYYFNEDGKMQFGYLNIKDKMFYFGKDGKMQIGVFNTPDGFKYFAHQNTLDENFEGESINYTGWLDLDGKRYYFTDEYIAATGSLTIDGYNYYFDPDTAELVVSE

biotinylated RBD of TcsL [3] = molecular target: T1, biotinylated RBD of TcsL; assay: SPR; settings: both partners purified; remark: listed apart in the source
biotinylated RBD of TcsL [4] = molecular target: T1, biotinylated RBD of TcsL; assay: SPR; settings: both partners purified; remark: listed apart in the source

Chain of TcdB 1285-1804 with C-terminal Avitag (RBD toxin fragment) (P18177 1285-1804): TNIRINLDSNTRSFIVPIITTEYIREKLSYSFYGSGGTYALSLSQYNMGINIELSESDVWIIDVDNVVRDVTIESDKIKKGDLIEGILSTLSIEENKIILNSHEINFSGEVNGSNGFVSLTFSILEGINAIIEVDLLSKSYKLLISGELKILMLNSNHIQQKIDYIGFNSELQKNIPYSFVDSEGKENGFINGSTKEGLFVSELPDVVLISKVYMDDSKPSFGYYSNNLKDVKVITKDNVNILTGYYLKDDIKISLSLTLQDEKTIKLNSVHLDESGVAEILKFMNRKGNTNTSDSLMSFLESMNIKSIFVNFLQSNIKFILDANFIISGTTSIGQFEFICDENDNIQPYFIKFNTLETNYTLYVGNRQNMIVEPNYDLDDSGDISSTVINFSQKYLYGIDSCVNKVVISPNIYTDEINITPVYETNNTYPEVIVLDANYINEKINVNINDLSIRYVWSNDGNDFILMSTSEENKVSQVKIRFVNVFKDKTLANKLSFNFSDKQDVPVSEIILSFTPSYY

B1: cspg67 (designed binder)
chain: AEELAKKLEEMAEVFKEKGDEEGAKECLKAAKIVRRSKNEEFGKWCIKKAEERLKKL
Kd (full length TcdB): 1.95 nM
koff (full length TcdB): 0.00387 s⁻¹
kon (full length TcdB): 1.99e+06 M⁻¹ s⁻¹
IC50 of neutralization of TcdB2 in WT Vero cells (CSPG4-dependent entry), Figure S7B; 8-step 3-fold dilution series starting at 40 nM; mean across 2 independent replicates (TcdB2 (TcdB 027)): 1 nM

B2: fzd13 (designed binder)
chain: AEKEVQELIDKALNTPDPKVASKYIISAVYVAAKARDPSLFQSALDTAKKL
Kd [1]: 5.55 pM
koff [1]: 0.00014 s⁻¹
kon [1]: 2.53e+07 M⁻¹ s⁻¹

B3: cspg4 (designed binder)
chain: ENKLARAVVTVNKSWLATQLFVRLYRLCKAGDPRCEEVAEKLRKVLELQGVPETDIELVVEVAKG
Kd (full length TcdB): 1.98 nM
koff (full length TcdB): 0.0378 s⁻¹
kon (full length TcdB): 1.91e+07 M⁻¹ s⁻¹

B4: ss2cspg18 (designed binder)
chain: MDEKVEKLKECLEKLKEKGDIKGVIDTERAIRICERSRHKEFCEWAIEKCENRIKES
notes: also called c18; dual disulfide version of cspg18
Kd (full length TcdB): 0.865 nM
koff (full length TcdB): 0.00164 s⁻¹
kon (full length TcdB): 1.9e+06 M⁻¹ s⁻¹

B5: ss2cspg27 (designed binder)
chain: MDELVEKLKECLEKLKEKGDIKGVTDTEKAIRICERSRHKEFCEWAIEACEARIKES
notes: also called c27; dual disulfide version of cspg27
Kd (full length TcdB): 0.507 nM
koff (full length TcdB): 0.000101 s⁻¹
kon (full length TcdB): 199000 M⁻¹ s⁻¹

B6: ss2cspg35 (designed binder)
chain: MDELVEKLKECLEKLKEKGDLKGVKDTERAIRICERSRHKEFCEWAIEKCEARIKES
notes: also called dual disulfide version of cspg35
Kd (full length TcdB): 0.48 nM
koff (full length TcdB): 8.03e-05 s⁻¹
kon (full length TcdB): 167000 M⁻¹ s⁻¹

B7: F4 (designed binder)
chain: NEELIKEIKKLLKEGKPASEILELLKKAGKEEIAKEAEKAALSSYDMTKAAAEEAIKKLK
Kd (biotinylated RBD of TcsL [2]): 4.23 nM
Kd (biotinylated RBD of TcsL [3]): 4.28 nM
koff (biotinylated RBD of TcsL [3]): 0.00928 s⁻¹
kon (biotinylated RBD of TcsL [3]): 2.17e+06 M⁻¹ s⁻¹

B8: B4 (designed binder)
chain: TEEIIKEIKKMKEKGEKASSIIDLLKKAGYSEIAKKAELAALKSENMTEAAAEKAIEELK
Kd (biotinylated RBD of TcsL [3]): 0.0569 nM
koff (biotinylated RBD of TcsL [3]): 0.000112 s⁻¹
kon (biotinylated RBD of TcsL [3]): 1.98e+06 M⁻¹ s⁻¹

B9: fzd48 (designed binder)
chain: KEELEKMIEELKKLIENGDKENFIKLFDEAFKKAKESRDPRTIASVWTLVLEFKNKN
Kd [1]: 0.00975 pM
koff [1]: 3.33e-07 s⁻¹
kon [1]: 3.42e+07 M⁻¹ s⁻¹

B10: B4-M79 (designed binder)
chain: TEEIIKEIKKMKEKGEKASSIIDLLKKAGYSEIAKKAELAALKSENMTEAAAEKAIEELKGSQVKLEESGGGLVQAGGSLKLSCAASGSTFSSSSVGWYRQAPGQQRELVAAITSGGSTNTADSVKGRFTMSRDNAKNTVYLQMRDLKPEDTAVYYCNVAGRNWVPISRYSPGPYWGQGTQVTVSS
Kd (biotinylated RBD of TcsL [4]): 9.9 pM

B11: fzd24 (designed binder)
chain: GEKSKLELLCKMLLTKAKLTGKQKYKNDLKELIEYLNEKGYPDLAKEASAKLEEI
Kd [1]: 15.3 pM
koff [1]: 0.000649 s⁻¹
kon [1]: 4.24e+07 M⁻¹ s⁻¹
